From article PMC5153698

Target: T1, human chemokine receptor CXCR4, C-terminally tagged with Rluc8 or mVenus (human), P61073
T1 chain: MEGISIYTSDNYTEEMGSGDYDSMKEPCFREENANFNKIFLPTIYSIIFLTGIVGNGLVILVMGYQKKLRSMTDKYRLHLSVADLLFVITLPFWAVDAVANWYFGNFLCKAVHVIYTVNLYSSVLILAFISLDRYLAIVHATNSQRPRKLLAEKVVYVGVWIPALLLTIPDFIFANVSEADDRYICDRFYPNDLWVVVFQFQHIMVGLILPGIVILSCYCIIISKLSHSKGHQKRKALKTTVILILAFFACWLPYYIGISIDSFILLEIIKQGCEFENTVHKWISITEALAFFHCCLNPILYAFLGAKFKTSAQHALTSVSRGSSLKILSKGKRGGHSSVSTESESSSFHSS
Assay: FRET or BRET
Conditions: remark: other sources report otherwise

B1: human chemokine receptor CXCR4, C-terminally tagged with Rluc8 or mVenus, P61073 1-352 (receptor)
chain: T1 chain
Binder B1 has a BRET50 of 0.11.
